From PMC5683694 (ACS Omega, 2017)
Positions of bridges follow the written chain, without caps; N, C: chain ends. No end group written: not given here.

Columns and labels:
[1] = cited from earlier work
live cells = settings: fluorescence correlation microscopy on live cells; cited from earlier work
[2] = biological target: Grb7-SH2 domain (growth factor receptor bound protein 7, residues 415-532) (UniProt Q14451 415-532); assay: thermal shift assay
Grb7-SH2 domain (growth factor receptor bound protein 7, residues 415-532), sequence (Q14451 415-532): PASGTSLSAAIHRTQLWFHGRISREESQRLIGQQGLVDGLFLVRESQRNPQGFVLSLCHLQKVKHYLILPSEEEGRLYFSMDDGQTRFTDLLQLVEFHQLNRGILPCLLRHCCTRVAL

For FQNRRMKWKK, the “uptake compared to that of the full-length Penetratin sequence” value [1] is listed as “negligible uptake”.

In the case of NRRMKWKK, the translocation efficiency (live cells) is given as “poor translocation efficiency”.

B1: G7-18NATE (cyclo-CH2CO-WFEGYDNTFPC) (peptide)
peptide: {CH2CO}-WFEGYDNTFPC
modifications: thioether N-11
For B1, the “change in Tm” value [2] was 0.8 °C.

B2: G7-18NATE-P16 (cyclo-(CH2CO-WFEGYDNTFPC-RQIKIWFQNRRMKWKK)) (peptide)
peptide: {CH2CO}-WFEGYDNTFPCRQIKIWFQNRRMKWKK
modifications: thioether N-11
For B2, the “change in Tm” value [2] was 0.74 °C.

B3: G7-18NATE-P7 (cyclo-(CH2CO-WFEGYDNTFPC-RRMKWKK)) (peptide)
peptide: {CH2CO}-WFEGYDNTFPCRRMKWKK
modifications: thioether N-11
With B3 the “change in Tm” value [2] was 1.8 °C.
